According to the Human Domainome abundance scans (Beltran et al. 2025):
± gives the uncertainty stated by the source.

B1: Nucleosome-remodeling factor subunit BPTF, residues 2862 to 2918; numbered along this chain, Q12830 (parent)
chain: TKKDTKLYCICKTPYDESKFYIGCDRCQNWYHGRCVGILQSEAELIDEYVCPQCQST

Variants of: B1
Assay: abundance fitness (aPCA) (normalised: wild type 0, dead -1); higher = more abundant; growth selection in yeast, the domain comes from the species named
Conditions: Homo sapiens

In order of rising abundance fitness:
1. V36W  -0.927 ± 0.22
2. V36G  -0.863 ± 0.12
3. V36Q  -0.862 ± 0.21
4. V36H  -0.785 ± 0.18
5. T13P  -0.674 ± 0.12
6. V36S  -0.669 ± 0.092
7. V36A  -0.565 ± 0.098
8. I46C  -0.483 ± 0.15
9. T13I  -0.482 ± 0.08
10. Q55Y  -0.474 ± 0.13
11. E17W  -0.412 ± 0.081
12. E44W  -0.408 ± 0.11
13. Y21G  -0.395 ± 0.12
14. V36N  -0.393 ± 0.13
15. V36M  -0.381 ± 0.12
16. Y21C  -0.369 ± 0.17
17. T13A  -0.357 ± 0.18
18. Y21T  -0.3 ± 0.13
19. E17V  -0.289 ± 0.068
20. Q40L  -0.282 ± 0.1
21. K6F  -0.278 ± 0.067
22. I46G  -0.254 ± 0.1
23. Q55W  -0.245 ± 0.099
24. F20I  -0.244 ± 0.12
25. D4L  -0.238 ± 0.059
26. Y21I  -0.237 ± 0.17
27. Q28W  -0.236 ± 0.11
28. F20G  -0.226 ± 0.08
29. Q28F  -0.221 ± 0.1
30. D4V  -0.215 ± 0.061
31. Q40K  -0.214 ± 0.13
32. Q40P  -0.2 ± 0.11
33. S41L  -0.198 ± 0.086
34. Q55T  -0.196 ± 0.076
35. D4H  -0.195 ± 0.06
36. Q28P  -0.193 ± 0.088
37. Q55M  -0.188 ± 0.095
38. Y21H  -0.188 ± 0.17
39. Q55G  -0.187 ± 0.075
40. S41F  -0.173 ± 0.12
41. E17N  -0.172 ± 0.11
42. E17L  -0.172 ± 0.065
43. E44T  -0.165 ± 0.088
44. I46F  -0.163 ± 0.098
45. K6C  -0.161 ± 0.089
46. E17P  -0.153 ± 0.081
47. F20M  -0.149 ± 0.087
48. Q55R  -0.142 ± 0.068
49. S41Y  -0.132 ± 0.12
50. Q40T  -0.127 ± 0.14
51. E44V  -0.123 ± 0.1
52. V36L  -0.123 ± 0.074
53. Q40C  -0.12 ± 0.18
54. E44N  -0.116 ± 0.1
55. T13Q  -0.116 ± 0.17
56. D4P  -0.112 ± 0.074
57. F20S  -0.11 ± 0.072
58. G23A  -0.099 ± 0.077
59. I46N  -0.098 ± 0.14
60. Q55N  -0.09 ± 0.12
61. E44M  -0.089 ± 0.093
62. D4M  -0.088 ± 0.11
63. Q28T  -0.081 ± 0.081
64. Y21W  -0.08 ± 0.11
65. E17Q  -0.074 ± 0.09
66. Q40A  -0.072 ± 0.093
67. S41D  -0.071 ± 0.16
68. S41Q  -0.07 ± 0.13
69. E17S  -0.065 ± 0.078
70. K6D  -0.062 ± 0.084
71. K6S  -0.035 ± 0.057
72. G23Y  -0.031 ± 0.13
73. I46P  -0.03 ± 0.077
74. G23T  -0.021 ± 0.095
75. E44K  -0.018 ± 0.093
76. E17D  -0.013 ± 0.1
77. Y21A  0.006 ± 0.12
78. S41E  0.017 ± 0.13
79. S41R  0.019 ± 0.071
80. Q55K  0.021 ± 0.11
81. E44D  0.027 ± 0.13
82. S41T  0.069 ± 0.1
83. Q55D  0.174 ± 0.1
